Earlier results, collected in patent publication US20060003347A1 (priority 2002, published 2006).

Legend:
[1] = literature
[2] = pH 8.5

Molecule: catalase
- kcat [1]: 4e+07 s⁻¹

Molecule: acetylcholinesterase
- kcat [1]: 14000 s⁻¹

Molecule: CCOP(=O)(OCC)Oc1ccc([N+](=O)[O-])cc1 [paraoxon]
- Rate of base-catalysed hydrolysis [2]: 2.4e-07 s⁻¹
